The target in one series is T1, MpSDMT (Methanohalophilus portucalensis, UniProt F6KV62).
T1 construct: gene SAMN06264941_0526; full length, 278 residues, 30,690 Da calculated (38 kD on SDS-PAGE)
T1 sequence (F6KV62 1-278): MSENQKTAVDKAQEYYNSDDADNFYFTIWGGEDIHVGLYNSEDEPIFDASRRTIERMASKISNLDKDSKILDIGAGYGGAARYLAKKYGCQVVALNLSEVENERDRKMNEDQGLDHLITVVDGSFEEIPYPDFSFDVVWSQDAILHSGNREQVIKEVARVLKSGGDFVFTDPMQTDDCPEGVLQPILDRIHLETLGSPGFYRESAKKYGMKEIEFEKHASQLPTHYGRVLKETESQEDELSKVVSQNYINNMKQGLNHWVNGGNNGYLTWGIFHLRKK
Put plainly: radiometric acid-washed charcoal methyltransferase assay. The format is biochemical. The following applies: read-out: I50 AdoHcy. The source says:
radiometric acid-washed charcoal methyltransferase assay on MpSDMT

For the next series, the target named is T2, MpGSMT (Methanohalophilus portucalensis, UniProt F6KV61).
T2 construct: gene gsmt; full length, 263 residues, 29,040 Da calculated (35 kD on SDS-PAGE)
T2 sequence (F6KV61 1-263): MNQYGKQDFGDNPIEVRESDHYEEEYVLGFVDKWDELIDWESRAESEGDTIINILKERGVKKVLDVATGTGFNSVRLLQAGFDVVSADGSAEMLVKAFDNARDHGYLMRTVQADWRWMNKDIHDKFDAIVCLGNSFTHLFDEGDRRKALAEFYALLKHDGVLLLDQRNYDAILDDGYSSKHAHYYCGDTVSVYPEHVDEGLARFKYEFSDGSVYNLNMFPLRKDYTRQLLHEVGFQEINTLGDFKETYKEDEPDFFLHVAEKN
The description is as above. The format is biochemical. The text has this:
radiometric acid-washed charcoal methyltransferase assay on MpGSMT

Substrate in the series “purified protein”: C[S+](CC[C@H](N)C(=O)O)C[C@H]1O[C@@H](n2cnc3c(N)ncnc32)[C@H](O)[C@@H]1O
Put plainly: purified protein. As to conditions: TES pH 7.3, 37 °C, labelled compound.

Series [1] deals with the molecule itself. Put plainly: AUC; sedimentation velocity, 0.70 mg/ml MpGSMT in 0.1 M TES buffer (pH 7.3) with 0 to 2.0 M KCl, 20°C, 42,000 rpm, SEDFIT 9.4c; monomer to dimer.
Substrate in series [2]: CNCC(=O)O
As to the kind of experiment: radiometric acid-washed charcoal methyltransferase assay. The format is biochemical, Methanohalophilus portucalensis. As to conditions: SMT activity, co-substrate AdoMet, TES pH 7.3, 37 °C (text b54 prints a different Km, equal to that of the native enzyme in the table).

Substrate in series [3]: CN(C)CC(=O)O
The description is as above. It counts as biochemical, Methanohalophilus portucalensis. The following applies: DMT activity, co-substrate AdoMet, TES pH 7.3, 37 °C (text b54 prints a different Km, equal to that of the native enzyme in the table).

We go through 4 molecules from article PMC3176816, “Characterization and Regulation of the Osmolyte Betaine Synthesizing Enzymes GSMT and SDMT from Halophilic Methanogen Methanohalophilus portucalensis” (PLoS ONE, 2011).

With `Nc1ncnc2c1ncn2[C@@H]1O[C@H](CSCC[C@H](N)C(=O)O)[C@@H](O)[C@H]1O` [AdoHcy], the IC50 on MpSDMT was found to be 150 µM; on MpGSMT (read-out: I50 AdoHcy) it was 70 µM.
For `C[N+](C)(C)CC(=O)[O-]` [betaine], the activity at 1 M on MpGSMT (read-out: Relative activity (%) / Betaine / 1 M) worked out at 30%.

B1: Methanohalophilus portucalensis glycine sarcosine methyltransferase (recombinant MpGSMT) (enzyme, UniProt F6KV61 1-263, looked up)
chain: MNQYGKQDFGDNPIEVRESDHYEEEYVLGFVDKWDELIDWESRAESEGDTIINILKERGVKKVLDVATGTGFNSVRLLQAGFDVVSADGSAEMLVKAFDNARDHGYLMRTVQADWRWMNKDIHDKFDAIVCLGNSFTHLFDEGDRRKALAEFYALLKHDGVLLLDQRNYDAILDDGYSSKHAHYYCGDTVSVYPEHVDEGLARFKYEFSDGSVYNLNMFPLRKDYTRQLLHEVGFQEINTLGDFKETYKEDEPDFFLHVAEKN
notes: glycine sarcosine methyltransferase (GSMT) of Methanohalophilus portucalensis strain FDF1T; complete Mpgsmt gene, 792 bp, 263 amino acids, GenBank HQ634197; The tag is inferred from the vector and the Ni Sepharose purification; source: E. coli BL21(DE3)RIL, pET28a, purified (Ni Sepharose 6 Fast Flow)
As for B1, in “purified protein” (GMT activity, methyl acceptor glycine), the Km is 8260 µM. For the same molecule, the “stoichiometry N” value in series [1] is 2.

B2: MpSDMT (Methanohalophilus portucalensis FDF-1) (protein)
chain: MSENQKTAVDKAQEYYNSDDADNFYFTIWGGEDIHVGLYNSEDEPIFDASRRTIERMASKISNLDKDSKILDIGAGYGGAARYLAKKYGCQVVALNLSEVENERDRKMNEDQGLDHLITVVDGSFEEIPYPDFSFDVVWSQDAILHSGNREQVIKEVARVLKSGGDFVFTDPMQTDDCPEGVLQPILDRIHLETLGSPGFYRESAKKYGMKEIEFEKHASQLPTHYGRVLKETESQEDELSKVVSQNYINNMKQGLNHWVNGGNNGYLTWGIFHLRKK
notes: full length, 278 residues, 30,690 Da calculated (38 kD on SDS-PAGE)
As for B2, the Km in series [2] was determined as 660 µM; in series [3], 660 µM; in “purified protein” (SMT activity, methyl acceptor sarcosine), 500 µM.
